Assay results published in US20050226874A1 (CENTRE NATIONAL DE LA RECHERCHE SCIENTIFIQUE CNRS A …, published 2005).
Positions count from the first letter of the chain named. Names and notes keep the numbering of the source.

What was measured:
[1] = target: T1, biotinylated human recombinant CD4 (Repligen Inc.) (human, UniProt P01730 26-394, limits assumed, biotinylated (sites not given)); test: quantified Spot reactivity, membrane probed with biotinylated CD4
T1 construct: Probe of the Spot membranes, used at 1 µg/ml; also called biotinylated CD4; CD4 probe
Protocol: (§1) The antigenic reactivity of the peptides bound to the cellulose membrane was tested with biotinylated CD4 (1 μg/ml) under conditions that led to the production of a blue precipitate for the reactive spots as described in [Bès, 2001b].

[2] = target: T1, biotinylated human recombinant CD4 …; test: Spot peptides on cellulose membrane probed with biotinylated CD4
Protocol: as §1

[3] = target: T1, biotinylated human recombinant CD4 …; test: Spot peptide on cellulose probed with biotinylated CD4
Protocol: as §1

[4] = target: T2, soluble human recombinant CD4 expressed in baculovirus (human, UniProt P01730 26-396, limits assumed); test: SPR (BIAcore), CD4 immobilised, Exp. 2
T2 construct: Coated on plates for the ELISA and covalently immobilised on the sensor for BIAcore; Only called soluble; also called soluble CD4; CD4 expressed in the baculovirus
Protocol: (§2) The kinetic parameters of the binding of CD4 to the paratope of the Fab fragments of the 13B8.2 antibody were determined by analysis of the surface plasmon resonance by means of a BIAcore analyzer (BIAcore AB, Uppsala, Sweden).

[5] = target: T3, membranous CD4 (wild human CD4 expressed on cells) (human, UniProt P01730 26-458); test: flow cytometry, T A2.01/CD4 cells, Fab at 1 µg/ml, fluorescein-labeled anti-kappa chain antibody
T3 construct: whole, on cells; also called T A2.01/CD4 cells; T AN2.01/CD4 cells
Protocol: (§3) The binding of the wild or mutant Fabs to the membranous CD4 was evaluated by flow cytometry.
(§4) In order to determine the binding of the fragments to the membranous CD4, T AN2.01 CD4+ cells were analyzed by indirect immunofluorescent labeling and flow cytometry (FIG. 4).

[6] = target: T2, soluble human recombinant CD4 expressed …; test: SPR (BIAcore), CD4 immobilised, Exp. 1
Protocol: as §2

[7] = target: T3, membranous CD4 (wild human CD4 …); test: flow cytometry, T A2.01/CD4 cells, Fab at 10 µg/ml, fluorescein-labeled anti-kappa chain antibody
Protocol: as §3, §4

[8] = target: T2, soluble human recombinant CD4 expressed …; test: SPR (BIAcore), CD4 immobilised, Exp. 3
Protocol: as §2

[9] = target: T2, soluble human recombinant CD4 expressed …; test: SPR (BIAcore), CD4 immobilised
Protocol: as §2

[10] = target: T2, soluble human recombinant CD4 expressed …; test: SPR (BIAcore), CD4 immobilised, Exp. 2; Exp. 2
Protocol: as §2

[11] = target: T2, soluble human recombinant CD4 expressed …; test: ELISA on coated baculovirus-expressed soluble CD4, anti-human kappa-peroxidase, A490 [panel Mutants CDR-H 13B8.2]
Protocol: A 1:500 dilution of the CD4 fraction expressed by the baculovirus in 0.1 M carbonate/bicarbonate buffer, pH 9.6, was incubated overnight at 4° C. on 96-well enzymatic immunoanalysis plates (Nunc, Paisley, UK). Four washings with the phosphate saline buffer (PBS) 160 mM pH 7.2, containing 0.1% Tween 20 (PBD-T), were performed before and after the saturation of the microplates, with powdered skim milk at a concentration of 1% in the PBS-T for one hour at 37° C.

B1: hexapeptide 49GVIWRS54 of the CDR-H2 region of 13B8.2 (peptide)
peptide: GVIWRS
notes: also called peptide 1; control peptide 1
**Q.** Does B1 bind [1]?
**A.** binds

B2: alanine analogue of peptide 49GVIWRS54 with Val50 replaced by Ala (peptide)
peptide: GAIWRS
notes: Spot peptide on cellulose membrane; also called GAIWRS
**Q.** Does B2 bind [2]?
**A.** binds

B3: alanine analogue of peptide 49GVIWRS54 with Ser54 replaced by Ala (peptide)
peptide: GVIWRA
notes: Spot peptide on cellulose membrane; also called GVIWRA
**Q.** Does B3 bind [3]?
**A.** binds

B4: alanine analogue of peptide 49GVIWRS54 with Arg53 replaced by Ala (peptide)
peptide: GVIWAS
notes: Spot peptide on cellulose membrane; also called GVIWAS
**Q.** Does B4 bind [3]?
**A.** no binding

B5: alanine analogue of peptide 49GVIWRS54 with Gly49 replaced by Ala (peptide)
peptide: AVIWRS
notes: Spot peptide on cellulose membrane; also called AVIWRS
**Q.** Does B5 bind [1]?
**A.** binds

B6: alanine analogue of peptide 49GVIWRS54 with Ile51 replaced by Ala (peptide)
peptide: GVAWRS
notes: Spot peptide on cellulose membrane; also called GVAWRS
**Q.** Does B6 bind [1]?
**A.** binds

B7: wild recombinant chimeric Fab fragment of the 13B8.2 anti-CD4 antibody (Fab, V domains shown)
VH: QVQLKQSGPGLVQPSQSLSITCTVSGFSLTTFGVHWVRQSPGKGLEWLGVIWRSGITDYNVPFMSRLSITKDNSKSQVFFKLNSLQPDDTAIYYCAKNDPGTGFAYWGQGTLVTVSA
VL: DIQMTQSPASLSASVGETVTFTCRASENIYSYLAWYQQKQGKSPQLLVHDAKTLAEGVPSRFSGGGSGTQFSLKINTLQPEDFGTYYCQHHYGNPPTFGGGTKLEIK
notes: Chimeric Fab: murine V domains fused to human CH1-γ1 (Fdγ1) and human Cκ, expressed in baculovirus/Sf9 cells, purified on protein G; also called Fabwild 13B8.2; wild Fab
**Q.** How did the Kd [4] turn out when B7 was run?
**A.** 33.5 nM

**Q.** What about the koff [4] of the same binder?
**A.** 0.000161 s⁻¹

**Q.** And the kon [4]?
**A.** 4800 M⁻¹ s⁻¹

**Q.** And the “percent of cells under the marker bar of the histogram” value (“percent of cells” below) [5]?
**A.** 44.7%

**Q.** What about the Kd [6] of the same binder?
**A.** 28.4 nM

**Q.** And the koff [6]?
**A.** 0.000108 s⁻¹

**Q.** What about the kon [6] of the same binder?
**A.** 3800 M⁻¹ s⁻¹

**Q.** And the “percent of cells” value [7]?
**A.** 84.8%

**Q.** And the Kd [8]?
**A.** 25.6 nM

**Q.** What about the koff [8] of the same binder?
**A.** 6.4e-05 s⁻¹

**Q.** What about the kon [8] of the same binder?
**A.** 2500 M⁻¹ s⁻¹

B8: mutant Fab W103-H of the 13B8.2 antibody (Fab, V domains shown)
VH: B7 VH with W107A
VL: B7 VL
notes: Chimeric Fab with human CH1-γ1 and Cκ; baculovirus/Sf9
**Q.** How did the Kd [9] turn out when B8 was run?
**A.** 4030 nM

**Q.** What about the koff [9] of the same binder?
**A.** 0.00112 s⁻¹

**Q.** What about the kon [9] of the same binder?
**A.** 278 M⁻¹ s⁻¹

**Q.** What about the “percent of cells” value [7] of the same binder?
**A.** 6.76%

B9: mutant Fab R38-H of the 13B8.2 antibody (Fab, V domains shown)
VH: B7 VH with R38A
VL: B7 VL
notes: as for B8
**Q.** For B9, which “percent of cells” value [5] is on record?
**A.** 48%

**Q.** And the Kd [9]?
**A.** 859 nM

**Q.** What about the koff [9] of the same binder?
**A.** 0.00014 s⁻¹

**Q.** And the kon [9]?
**A.** 163 M⁻¹ s⁻¹

B10: mutant Fab C92-H of the 13B8.2 antibody (Fab, V domains shown)
VH: B7 VH with C95A
VL: B7 VL
notes: as for B8
**Q.** How did the “percent of cells” value [5] turn out when B10 was run?
**A.** 76.5%

**Q.** And the Kd [9]?
**A.** 3.7 nM

**Q.** What about the koff [9] of the same binder?
**A.** 0.000358 s⁻¹

**Q.** And the kon [9]?
**A.** 96100 M⁻¹ s⁻¹

B11: mutant Fab Y32-L of the 13B8.2 antibody (Fab, V domains shown)
VH: B7 VH
VL: B7 VL with Y32A
notes: as for B8
**Q.** Which Kd [9] does the source give for B11 here?
**A.** 8930 nM

**Q.** What about the koff [9] of the same binder?
**A.** 0.000585 s⁻¹

B12: control mutant Fab V61-H of the 13B8.2 antibody (Fab, V domains shown)
VH: B7 VH with V61A
VL: B7 VL
notes: Chimeric Fab with human CH1-γ1 and Cκ; baculovirus/Sf9; Control position, not a Spot contributor residue; also called V61-Hcontrol
**Q.** For B12, which Kd [4] is on record?
**A.** 2.9 nM

**Q.** And the koff [4]?
**A.** 0.000324 s⁻¹

**Q.** And the kon [4]?
**A.** 112000 M⁻¹ s⁻¹

**Q.** What about the “percent of cells” value [5] of the same binder?
**A.** 62.9%

**Q.** And the Kd [6]?
**A.** 2 nM

**Q.** And the koff [6]?
**A.** 0.000172 s⁻¹

**Q.** And the kon [6]?
**A.** 86800 M⁻¹ s⁻¹

B13: mutant Fab R53-H of the 13B8.2 antibody (Fab, V domains shown)
VH: B7 VH with R53A
VL: B7 VL
notes: as for B8
**Q.** What does the source list for B13?
**A.** Kd [9]: 29200 nM; koff [9]: 0.0105 s⁻¹; kon [9]: 359 M⁻¹ s⁻¹; percent of cells under the marker bar of the histogram [7]: 43.2%

B14: mutant Fab F100K-H of the 13B8.2 antibody (Fab, V domains shown)
VH: B7 VH with F104A
VL: B7 VL
notes: as for B8
**Q.** With B14 as the binder, how does the Kd [9] read?
**A.** 845 nM

**Q.** And the koff [9]?
**A.** 0.000475 s⁻¹

**Q.** What about the kon [9] of the same binder?
**A.** 562 M⁻¹ s⁻¹

B15: mutant Fab Y36-L of the 13B8.2 antibody (Fab, V domains shown)
VH: B7 VH
VL: B7 VL with Y36A
notes: as for B8
**Q.** Which Kd [10] does the source give for B15 here?
**A.** 11.4 nM

**Q.** And the koff [10]?
**A.** 0.00057 s⁻¹

**Q.** And the kon [10]?
**A.** 50000 M⁻¹ s⁻¹

**Q.** What about the “percent of cells” value [5] of the same binder?
**A.** 44.6%

**Q.** And the Kd [6]?
**A.** 25.4 nM

**Q.** What about the koff [6] of the same binder?
**A.** 0.000651 s⁻¹

**Q.** What about the kon [6] of the same binder?
**A.** 25600 M⁻¹ s⁻¹

B16: mutant Fab W36-H of the 13B8.2 antibody (Fab, V domains shown)
VH: B7 VH with W36A
VL: B7 VL
notes: as for B8
**Q.** For B16, which Kd [9] is on record?
**A.** 15.4 nM

**Q.** And the koff [9]?
**A.** 0.000271 s⁻¹

**Q.** And the kon [9]?
**A.** 17600 M⁻¹ s⁻¹

**Q.** What about the “percent of cells” value [7] of the same binder?
**A.** 65.5%

B17: mutant Fab Y102-H of the 13B8.2 antibody (Fab, V domains shown)
VH: B7 VH with Y106A
VL: B7 VL
notes: as for B8
**Q.** Does B17 bind [11]?
**A.** binds

B18: mutant Fab H35-H of the 13B8.2 antibody (Fab, V domains shown)
VH: B7 VH with H35A
VL: B7 VL
notes: as for B8
**Q.** For B18, which Kd [9] is on record?
**A.** 6280 nM

**Q.** And the koff [9]?
**A.** 0.00189 s⁻¹

**Q.** What about the kon [9] of the same binder?
**A.** 301 M⁻¹ s⁻¹

**Q.** And the “percent of cells” value [7]?
**A.** 33.6%

B19: mutant Fab W52-H of the 13B8.2 antibody (Fab, V domains shown)
VH: B7 VH with W52A
VL: B7 VL
notes: as for B8
**Q.** Which Kd [9] does the source give for B19 here?
**A.** 3620 nM

**Q.** And the koff [9]?
**A.** 0.000859 s⁻¹

**Q.** And the kon [9]?
**A.** 237 M⁻¹ s⁻¹

B20: mutant Fab F32-H of the 13B8.2 antibody (Fab, V domains shown)
VH: B7 VH with F32A
VL: B7 VL
notes: Chimeric Fab with human CH1-γ1 and Cκ; baculovirus/Sf9; also called F32 mutant Fab
**Q.** B20 was tested. Which Kd [4] did it give?
**A.** 17 nM

**Q.** What about the koff [4] of the same binder?
**A.** 0.000246 s⁻¹

**Q.** What about the kon [4] of the same binder?
**A.** 14400 M⁻¹ s⁻¹

**Q.** What about the Kd [6] of the same binder?
**A.** 13.5 nM

**Q.** What about the koff [6] of the same binder?
**A.** 0.000248 s⁻¹

**Q.** And the kon [6]?
**A.** 18300 M⁻¹ s⁻¹

**Q.** And the “percent of cells” value [7]?
**A.** 82.4%

**Q.** What about the Kd [8] of the same binder?
**A.** 16.9 nM

**Q.** What about the koff [8] of the same binder?
**A.** 0.00025 s⁻¹

**Q.** What about the kon [8] of the same binder?
**A.** 14800 M⁻¹ s⁻¹

B21: hexapeptide 52WRSGIT57 of the CDR-H2 region of 13B8.2 (peptide)
peptide: WRSGIT
notes: Spot peptide on cellulose membrane; also called peptide 2
**Q.** Does B21 bind [1]?
**A.** binds

**Q.** Does WRSGIA (also called WRSGIA) [alanine analogue of peptide 52WRSGIT57 with Thr57 replaced by Ala (dotted bar T57)] bind [1]?
**A.** binds

**Q.** Does WRAGIT (also called WRAGIT) [alanine analogue of peptide 52WRSGIT57 with Ser54 replaced by Ala (dotted bar S54)] bind [1]?
**A.** binds

**Q.** Does WASGIT (also called WASGIT) [alanine analogue of peptide 52WRSGIT57 with Arg53 replaced by Ala (dotted bar R53)] bind [2]?
**A.** no binding

**Q.** Does WRSGAT (also called WRSGAT) [alanine analogue of peptide 52WRSGIT57 with Ile56 replaced by Ala (dotted bar I56)] bind [1]?
**A.** binds

**Q.** Does ARSGIT (also called ARSGIT) [alanine analogue of peptide 52WRSGIT57 with Trp52 replaced by Ala (dotted bar W52)] bind [1]?
**A.** binds

**Q.** Does WRSAIT (also called WRSAIT) [alanine analogue of peptide 52WRSGIT57 with Gly55 replaced by Ala (dotted bar G55)] bind [1]?
**A.** binds
